# Experimental data: patent US20210284751A1 (MELLITUS, published 2021)
# B1: antibody H9 (clone H9), CD59 capture antibody (antibody, mouse IgG1, kappa, V domains shown)
# VH: EVQLVESGGDLVKPGGSLKLSCAASGFTFSSYGMSWVRQSPDKRMEWVATISSGGSYTYYPDSVKGRFTVSRDNAKNTLYLQMSSLRSEDTAIFYCVRDRYDGMDYWGQGTSVTVSS
# VL: DVVMTQSPLSLPVSLGDQASISCRSSQSLVHSNGNTYLQWYLQKPGQSPNLLIYKVSNRFSGVPDRFSGSGSGTDFTLKISRVEAEDLGVYFCSQSTHVPFTFGSGTKLEIKR
# notes: Mouse hybridoma monoclonal antibody
# Tests used:
# CD59 (human CD59, hCD59) = target: T1, CD59 (human CD59, hCD59) (human, UniProt P13987 26-102); assay: hybridoma antibody characterisation, method not described
# T1 construct: also called non-glycated CD59
# T1 sequence: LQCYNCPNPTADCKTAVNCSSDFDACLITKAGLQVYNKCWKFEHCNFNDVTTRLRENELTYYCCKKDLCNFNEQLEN
# [1] = target: T2, K41 Amadori-modified glycated CD59 (GCD59) (human, UniProt P13987 26-102, Amadori-modified (glycated) lysine at K41, numbered on SEQ ID NO: 1); assay: sandwich ELISA on urine dilutions (6, 3, 1.5, 0.75, 0.37, 0.18 %): H9 capture, D2 detection, HRP secondary antibody, OD 450 nm converted to SPU with the calibration curve
# T2 construct: also called Amadori-modified GCD59; Amadori-modified hGCD59
# T2 sequence: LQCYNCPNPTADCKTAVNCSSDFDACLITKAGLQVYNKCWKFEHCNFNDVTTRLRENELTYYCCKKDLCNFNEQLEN
# Description: GCD59 detection in urine samples was carried out using detection antibody D2, described above, specific for Amadori-modified GCD59. Assay plates were first coated with CD59 capture antibody. H9. Urine samples were obtained from two subjects, one known to have a high level of HbA1C (HbA1C-H) and one known to have a low level of HbA1C (HbAC1-L). High levels of HbA1C are a known indicator of elevated blood glucose. Samples were prepared by first adding beta-mercaptoethanol (BME) to a final concentration of 5%. Samples were then boiled at 100° C. for 5 min and centrifuged to pellet any debris. Supernatants were then isolated for the assay. A surrogate compound standard, as shown in FIG. 27 of U.S. Pat. No. 9,417,248, was used to prepare a dilution series for generating a calibration curve. The Amadori-modified GCD59 surrogate included synthetic compounds including capture and detection peptides linked by a flexible linker.
# Standard samples, urine samples, as well as control samples [serum dilution buffer (50 mM Acetic acid/Na acetate; 2% NonIdet P40 Substitute; 0.15% Tween 20; 0.1% Triton X-100; 50 ppm ProClin 300) only] were added to the assay plate in triplicate. Urine samples were further diluted using serum dilution buffer to create a series of conditions ranging from 6% v/v urine sample to 0.2% urine sample in serum dilution buffer. […]
binder,measurement,setting,value
B1,binding result,"CD59 (human CD59, hCD59)",binds
same,binding result,[1],binds
